According to publication PMC11446282:

B1: OFD1_HUMAN (protein, UniProt O75665 1-1012, looked up)
Centriole and centriolar …: MMAQSNMFTVADVLSQDELRKKLYQTFKDRGILDTLKTQLRNQLIHELMHPVLSGELQPRSISVEGSSLLIGASNSLVADHLQRCGYEYSLSVFFPESGLAKEKVFTMQDLLQLIKINPTSSLYKSLVSGSDKENQKGFLMHFLKELAEYHQAKESCNMETQTSSTFNRDSLAEKLQLIDDQFADAYPQRIKFESLEIKLNEYKREIEEQLRAEMCQKLKFFKDTEIAKIKMEAKKKYEKELTMFQNDFEKACQAKSEALVLREKSTLERIHKHQEIETKEIYAQRQLLLKDMDLLRGREAELKQRVEAFELNQKLQEEKHKSITEALRRQEQNIKSFEETYDRKLKNELLKYQLELKDDYIIRTNRLIEDERKNKEKAVHLQEELIAINSKKEELNQSVNRVKELELELESVKAQSLAITKQNHMLNEKVKEMSDYSLLKEEKLELLAQNKLLKQQLEESRNENLRLLNRLAQPAPELAVFQKELRKAEKAIVVEHEEFESCRQALHKQLQDEIEHSAQLKAQILGYKASVKSLTTQVADLKLQLKQTQTALENEVYCNPKQSVIDRSVNGLINGNVVPCNGEISGDFLNNPFKQENVLARMVASRITNYPTAWVEGSSPDSDLEFVANTKARVKELQQEAERLEKAFRSYHRRVIKNSAKSPLAAKSPPSLHLLEAFKNITSSSPERHIFGEDRVVSEQPQVGTLEERNDVVEALTGSAASRLRGGTSSRRLSSTPLPKAKRSLESEMYLEGLGRSHIASPSPCPDRMPLPSPTESRHSLSIPPVSSPPEQKVGLYRRQTELQDKSEFSDVDKLAFKDNEEFESSFESAGNMPRQLEMGGLSPAGDMSHVDAAAAAVPLSYQHPSVDQKQIEEQKEEEKIREQQVKERRQREERRQSNLQEVLERERRELEKLYQERKMIEESLKIKIKKELEMENELEMSNQEIKDKSAHSENPLEKYMKIIQQEQDQESADKSSKKMVQEGSLVDTLQSSDKVESLTGFSHEELDDSW
B2: PDE8B_HUMAN (protein, UniProt O95263 1-885, looked up)
High affinity cAMP-specific …: MGCAPSIHVSQSGVIYCRDSDESSSPRQTTSVSQGPAAPLPGLFVQTDAADAIPPSRASGPPSVARVRRARTELGSGSSAGSAAPAATTSRGRRRHCCSSAEAETQTCYTSVKQVSSAEVRIGPMRLTQDPIQVLLIFAKEDSQSDGFWWACDRAGYRCNIARTPESALECFLDKHHEIIVIDHRQTQNFDAEAVCRSIRATNPSEHTVILAVVSRVSDDHEEASVLPLLHAGFNRRFMENSSIIACYNELIQIEHGEVRSQFKLRACNSVFTALDHCHEAIEITSDDHVIQYVNPAFERMMGYHKGELLGKELADLPKSDKNRADLLDTINTCIKKGKEWQGVYYARRKSGDSIQQHVKITPVIGQGGKIRHFVSLKKLCCTTDNNKQIHKIHRDSGDNSQTEPHSFRYKNRRKESIDVKSISSRGSDAPSLQNRRYPSMARIHSMTIEAPITKVINIINAAQENSPVTVAEALDRVLEILRTTELYSPQLGTKDEDPHTSDLVGGLMTDGLRRLSGNEYVFTKNVHQSHSHLAMPITINDVPPCISQLLDNEESWDFNIFELEAITHKRPLVYLGLKVFSRFGVCEFLNCSETTLRAWFQVIEANYHSSNAYHNSTHAADVLHATAFFLGKERVKGSLDQLDEVAALIAATVHDVDHPGRTNSFLCNAGSELAVLYNDTAVLESHHTALAFQLTVKDTKCNIFKNIDRNHYRTLRQAIIDMVLATEMTKHFEHVNKFVNSINKPMAAEIEGSDCECNPAGKNFPENQILIKRMMIKCADVANPCRPLDLCIEWAGRISEEYFAQTDEEKRQGLPVVMPVFDRNTCSIPKSQISFIDYFITDMFDAWDAFAHLPALMQHLADNYKHWKTLDDLKCKSLRLPSDS
B3: BAG2_HUMAN (protein, UniProt O95816 2-211, looked up)
BAG family molecular …: AQAKINAKANEGRFCRSSSMADRSSRLLESLDQLELRVEALREAATAVEQEKEILLEMIHSIQNSQDMRQISDGEREELNLTANRLMGRTLTVEVSVETIRNPQQQESLKHATRIIDEVVNKFLDDLGNAKSHLMSLYSACSSEVPHGPVDQKFQSIVIGCALEDQKKIKRRLETLLRNIENSDKAIKLLEHSKGAGSKTLQQNAESRFN

Test system: B55α interactors
Assay: MS analysis of B55α WT, V228A, I284A, S287A and D340A immunopurifications
Assay type: binding, human
Conditions: log2 ratio of interactor abundance, 4 replicates each, normalised to bait B55α; for log2_ratio_D340_WT: B55α D340A vs WT immunopurification; for log2_ratio I284_WT: B55α I284A vs WT immunopurification; for log2_ratio S287_WT: B55α S287A vs WT immunopurification; for log2_ratio V228_WT: B55α V228A vs WT immunopurification
Experimental: Standard cloning techniques were used throughout. Point mutations were introduced by whole plasmid polymerase chain reaction (PCR). All constructs were fully sequenced. Synthetic DNA was purchased from GeneArt, Life Technologies and cloned into pcDNA5/FRT/TO (Invitrogen) expression vector containing YFP, resulting in the indicated YFP fusion proteins. These constructs were transiently transfected into HeLa cells 24 hours before harvesting cells. Cells were lysed in lysis buffer [50 mM tris-HCl (pH 7.5), 50 mM NaCl, 1 mM EDTA, 1 mM […], and 0.1% NP-40]. Complexes were immunoprecipitated at 4°C in lysis buffer with green fluorescent protein (GFP)–Trap (ChromoTek) and washed in lysis buffer. Precipitated protein complexes were washed three times in lysis buffer, eluted in 2× SDS sample buffer, and subjected to Western blotting or MS as indicated.
Pull-downs were analyzed on a Q-Exactive Plus quadrupole or Fusion Orbitrap Lumos mass spectrometer (Thermo Fisher Scientific) equipped with Easy-nLC 1000 or […] (Thermo Fisher Scientific) and nanospray source (Thermo Fisher Scientific).
Static modifications included carbamidomethylcysteine, and variable modifications included oxidized methionine and STY phosphorylation. Searches were filtered using orthogonal measures including mass measurement accuracy (±3 parts per million), Xcorr for charges from +2 to +4, and dCn targeting a <1% false discovery rate at the peptide level. Quantification of LC-MS/MS spectra was performed using MassChroQ ([57]) and the iBAQ method ([58]). All data were analyzed using R 4.3.0. Missing values were imputed from a normal distribution. […] In each dataset, the abundance of the protein of interest was normalized to be equal across all samples. Statistical analyses were done using a two-tailed Student’s t test.

Row | Molecule | log2_ratio_D340_WT | log2_ratio I284_WT | log2_ratio S287_WT | log2_ratio V228_WT
1 | B1 | 2.04 | 1.52 | 0.73 | -2.22
2 | B2 | 3.81 | 0.83 | 4.46 | 5.00
3 | B3 | -0.69 | -0.54 | 0.19 | -0.43
